Measured values reported in publication PMC3144226, “Conformational Plasticity of proNGF” (PLoS ONE, 2011).

Columns and labels:
[1] = target: recombinant murine proNGF (proNGF25, the short form of the precursor protein) (murine) (UniProt P01139); experiment: NMR diffusion (PFG-LED); diffusion compared with model proteins (IscS dimer, DHFR, NusA KH domain); phosphate buffer pH 7, 25°C
[2] = target: the molecule itself; experiment: 1D 1H NMR spectrum (linewidths); unlabelled NGF; phosphate buffer pH 7, 25°C

Molecule “recombinant murine proNGF (proNGF25, the short form of the precursor protein) (from UniProt P01139 19-241) (natural protein)” has a stoichiometry N [1] of 2.

B1: mature murine Nerve Growth Factor (NGF) (natural protein, UniProt P01139 122-241, looked up)
chain: SSTHPVFHMGEFSVCDSVSVWVGDKTTATDIKGKEVTVLAEVNINNSVFRQYFFETKCRASNPVESGCRGIDSKHWNSYCTTTHTFVKALTTDEKQAAWRFIRIDTACVCVLSRKATRRG
notes: mature NGF, murine, the cut product of proNGF25 after the furin site RSKR (118-121 of UniProt P01139); Trp21, Trp76, Trp99. numbers count on: the mature protein; The purified NGF was made by trypsin cleavage, the NGF of the furin experiment by furin cleavage in the tube; also called mature NGF; NGF moiety; source: in the furin experiment released from proNGF25 by furin in the NMR tube
B1: binds [2].
